Results published in patent CN114891097A (INST MICROBIOLOGY CAS, dated 2022).

Target: SARS-CoV-2 RBD-hFc蛋白 (SARS-CoV-2 RBD fused to a human Fc tag) (SARS-CoV-2; human)

B1: S43纳米抗体 (alpaca-derived nanobody S43, with C-terminal 6xHis tag) (VHH)
VHH: QVQLQESGGGLVQPGGSLRLTCAPSGFTLDYYAIGWFRQAPGKEREGVSCISSNNSTYYADSVKGRFTISRDNAKNTVYLQMNSLKPEDTAVYYCAAEPDYSGVYYYTCGWTDFGSWGQGTQVTVSS
  Kd: 0.12 nM
